Assay results from patent US20180000963A1 (HELIX BIOPHARMA, published 2018).
Values joined by “and” are separate entries in the source; they are usually repeats but may differ in a detail not shown here. Identical values can stand only once.

B1: CEACAM6 (carcinoembryonic antigen-related cell adhesion molecule 6) on the surface of human tumor cell lines (receptor)
chain: KLTIESTPFNVAEGKEVLLLAHNLPQNRIGYSWYKGERVDGNSLIVGYVIGTQQATPGPAYSGRETIYPNASLLIQNVTQNDTGFYTLQVIKSDLVNEEATGQFHVYPELPKPSISSNNSNPVEDKDAVAFTCEPEVQNTTYLWWVNGQSLPVSPRLQLSNGNMTLTLLSVKRNDAGSYECEIQNPASANRSDPVTLNVLYGPDVPTISPSKANYRPGENLNLSCHAASNPPAQYSWFINGTFQQSTQELFIPNITVNNSGSYMCQAHNSATGLNRTTVTMITVSG
notes: whole, on cells; also called CEACAM6 antigen; NCA

Columns and labels:
[1] = biological target: T1, DOS47 (Jack bean urease, unconjugated) (Jack bean (Canavalia ensiformis), UniProt P07374 1-840); test: whole-cell binding assay (ammonia read-out) on BxPC-3, Capan-1, ZR-75-30, LS174T and MDA-MB231 cells
T1 construct: Purified from jack bean; hexamer of six identical subunits; also called HPU; high purity urease

[2] = biological target: T2, L-DOS47 (anti-CEACAM6-urease conjugate); AFAIKL2 antibody conjugated to Jack bean urease through the SIAB … (Jack bean (Canavalia ensiformis), UniProt P07374 1-840, primary amines linked through the SIAB linkage to urease cysteines); activation sites Lys76, Met1 (N-terminal amine), Lys44, Lys32; cysteine thiols linked through the SIAB linkage to AFAIKL2; …); test: whole-cell binding assay, ZR-75-30 cells
T2 construct: Chemical conjugate, not a fusion; Hexameric urease (six ~91 kDa subunits) carries 0-4 AFAIKL2 per subunit; In the ECL assays it was labelled with ruthenium-NHS-ester (Sulfo-Tag); also called antibody-urease conjugate; AFAIKL2-urease

[3] = biological target: B1; test: cell-based ECL competition; unlabelled competitor against L-DOS47-tag (1 µg/mL) on BxPC-3 cells

T2 sequence (P07374 whole entry, chain 1 of 2, the tested form may be a part): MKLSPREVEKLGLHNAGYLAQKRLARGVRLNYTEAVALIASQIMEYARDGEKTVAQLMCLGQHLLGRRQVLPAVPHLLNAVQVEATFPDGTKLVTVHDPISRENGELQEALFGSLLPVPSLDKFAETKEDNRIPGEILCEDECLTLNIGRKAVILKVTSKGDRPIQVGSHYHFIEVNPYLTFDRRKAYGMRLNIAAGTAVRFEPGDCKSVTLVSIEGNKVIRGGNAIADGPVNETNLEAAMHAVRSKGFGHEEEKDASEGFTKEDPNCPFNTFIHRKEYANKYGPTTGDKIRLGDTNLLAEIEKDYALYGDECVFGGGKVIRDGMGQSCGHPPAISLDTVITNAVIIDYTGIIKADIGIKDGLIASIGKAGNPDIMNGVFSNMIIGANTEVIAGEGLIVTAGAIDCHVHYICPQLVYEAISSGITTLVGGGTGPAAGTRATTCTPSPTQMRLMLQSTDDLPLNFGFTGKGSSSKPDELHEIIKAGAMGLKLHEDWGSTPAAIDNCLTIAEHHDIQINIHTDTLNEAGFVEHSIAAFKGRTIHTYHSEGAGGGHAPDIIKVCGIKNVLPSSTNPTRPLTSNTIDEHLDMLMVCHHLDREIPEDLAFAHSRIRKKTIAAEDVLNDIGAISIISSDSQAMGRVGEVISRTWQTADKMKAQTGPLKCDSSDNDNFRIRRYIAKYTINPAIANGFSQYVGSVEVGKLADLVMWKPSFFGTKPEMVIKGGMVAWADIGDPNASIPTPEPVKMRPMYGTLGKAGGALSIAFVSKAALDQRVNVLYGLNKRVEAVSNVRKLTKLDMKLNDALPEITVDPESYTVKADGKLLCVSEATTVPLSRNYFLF
T2 sequence (VHH, as listed by the source limits assumed, chain 2 of 2): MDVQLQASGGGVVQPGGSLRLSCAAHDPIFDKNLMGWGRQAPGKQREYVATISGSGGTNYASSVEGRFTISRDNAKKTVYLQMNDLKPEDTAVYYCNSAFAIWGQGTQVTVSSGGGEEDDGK
T1 sequence (P07374 whole entry): as the sequence (P07374 whole entry, chain 1 of 2, the tested form may be a part) above

B1
binding result [1]: no binding | binding result [2]: binds

B2: AFAIKL2 antibody (single-domain camelid antibody fragment) (VHH)
VHH: DVQLQASGGGVVQPGGSLRLSCAAHDPIFDKNLMGWGRQAPGKQREYVATISGSGGTNYASSVEGRFTISRDNAKKTVYLQMNDLKPEDTAVYYCNSAFAIWGQGTQVTVSS
notes: Expressed in E. coli BL21 (DE3) pT7-7; also called AFAIKL2-tag; native single domain antibody
IC50 [3]: ~20 µg/mL and ~1.55 µM
